Assays:
[1] = target: human κ-opioid receptor (hKOPr), human recombinant KOPr expressed in CHO cells (human) (UniProt P41145); assay: competition with [3H]U69593 (2 nM), human recombinant KOPr expressed in CHO cells
[2] = target: human δ-opioid receptor (hDOPr), human recombinant DOPr expressed in CHO cells (human) (UniProt P41143); assay: competition with [3H]DADLE (0.5 nM), human recombinant DOPr expressed in CHO cells

bilorphin (H-[Dmt]-vVf-NH2; 2,6-dimethyl-L-tyrosine-D-Val-L-Val-D-Phe-NH2) (peptide)
Ki [1]: 770 nM
Ki [2]: 190 nM
